B1: Mothers against decapentaplegic homolog 4 (Homo sapiens), Q13485 (parent)
chain: MDNMSITNTPTSNDACLSIVHSLMCHRQGGESETFAKRAIESLVKKLKEKKDELDSLITAITTNGAHPSKCVTIQRTLDGRLQVAGRKGFPHVIYARLWRWPDLHKNELKHVKYCQYAFDLKCDSVCVNPYHYERVVSPGIDLSGLTLQSNAPSSMMVKDEYVHDFEGQPSLSTEGHSIQTIQHPPSNRASTETYSTPALLAPSESNATSTANFPNIPVASTSQPASILGGSHSEGLLQIASGPQPGQQQNGFTGQPATYHHNSTTTWTGSRTAPYTPNLPHHQNGHLQHHPPMPPHPGHYWPVHNELAFQPPISNHPAPEYWCSIAYFEMDVQVGETFKVPSSCPIVTVDGYVDPSGGDRFCLGQLSNVHRTEAIERARLHIGKGVQLECKGEGDVWVRCLSDHAVFVQSYYLDREAGRAPGDAVHKIYPSAYIKVFDLRQCHRQMQQQAATAQAAAAAQAAAVAGNIPGPGSVGGIAPAISLSAAAGIGVDDLRRLCILRMSFVKGWGPDYPRQSIKETPCWIEIHLHRALQLLDEVLHTMPIADPQPLD
B2: Mothers against decapentaplegic homolog 4 (Homo sapiens), Q13485 (parent)
chain: B1 chain
partner: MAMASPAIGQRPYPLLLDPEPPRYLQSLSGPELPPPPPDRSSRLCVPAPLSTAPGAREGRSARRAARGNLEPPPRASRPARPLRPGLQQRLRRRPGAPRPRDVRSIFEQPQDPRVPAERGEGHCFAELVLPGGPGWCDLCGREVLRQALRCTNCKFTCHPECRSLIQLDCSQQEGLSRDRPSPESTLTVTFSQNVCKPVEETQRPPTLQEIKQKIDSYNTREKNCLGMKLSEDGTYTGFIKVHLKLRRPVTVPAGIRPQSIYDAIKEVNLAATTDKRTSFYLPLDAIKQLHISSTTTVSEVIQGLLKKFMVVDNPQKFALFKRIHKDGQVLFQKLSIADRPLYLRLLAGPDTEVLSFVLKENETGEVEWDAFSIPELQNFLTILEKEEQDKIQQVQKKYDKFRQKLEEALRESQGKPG
B3: Cyclin-dependent kinase 4 (Homo sapiens), P11802 (parent)
chain: MATSRYEPVAEIGVGAYGTVYKARDPHSGHFVALKSVRVPNGGGGGGGLPISTVREVALLRRLEAFEHPNVVRLMDVCATSRTDREIKVTLVFEHVDQDLRTYLDKAPPPGLPAETIKDLMRQFLRGLDFLHANCIVHRDLKPENILVTSGGTVKLADFGLARIYSYQMALTPVVVTLWYRAPEVLLQSTYATPVDMWSVGCIFAEMFRRKPLFCGNSEADQLGKIFDLIGLPPEDDWPRDVSLPRGAFPPRGPRPVQSVVPEMEESGAQLLLEMLTFNPHKRISAFRALQHSYLHKDEGNPE
B4: Actin nucleation-promoting factor WAS (Homo sapiens), P42768 (parent)
chain: MSGGPMGGRPGGRGAPAVQQNIPSTLLQDHENQRLFEMLGRKCLTLATAVVQLYLALPPGAEHWTKEHCGAVCFVKDNPQKSYFIRLYGLQAGRLLWEQELYSQLVYSTPTPFFHTFAGDDCQAGLNFADEDEAQAFRALVQEKIQKRNQRQSGDRRQLPPPPTPANEERRGGLPPLPLHPGGDQGGPPVGPLSLGLATVDIQNPDITSSRYRGLPAPGPSPADKKRSGKKKISKADIGAPSGFKHVSHVGWDPQNGFDVNNLDPDLRSLFSRAGISEAQLTDAETSKLIYDFIEDQGGLEAVRQEMRRQEPLPPPPPPSRGGNQLPRPPIVGGNKGRSGPLPPVPLGIAPPPPTPRGPPPPGRGGPPPPPPPATGRSGPLPPPPPGAGGPPMPPPPPPPPPPPSSGNGPAPPPLPPALVPAGGLAPGGGRGALLDQIRQGIQLNKTPGAPESSALQPPPQSSEGLVGALMHVMQKRSRAIHSSDEGEDQAGDEDEDDEWDD
B5: Peroxisomal biogenesis factor 3 (Homo sapiens), P56589 (parent)
chain: MLRSVWNFLKRHKKKCIFLGTVLGGVYILGKYGQKKIREIQEREAAEYIAQARRQYHFESNQRTCNMTVLSMLPTLREALMQQLNSESLTALLKNRPSNKLEIWEDLKIISFTRSTVAVYSTCMLVVLLRVQLNIIGGYIYLDNAAVGKNGTTILAPPDVQQQYLSSIQHLLGDGLTELITVIKQAVQKVLGSVSLKHSLSLLDLEQKLKEIRNLVEQHKSSSWINKDGSKPLLCHYMMPDEETPLAVQACGLSPRDITTIKLLNETRDMLESPDFSTVLNTCLNRGFSRLLDNMAEFFRPTEQDLQHGNSMNSLSSVSLPLAKIIPIVNGQIHSVCSETPSHFVQDLLTMEQVKDFAANVYEAFSTPQQLEK
partner: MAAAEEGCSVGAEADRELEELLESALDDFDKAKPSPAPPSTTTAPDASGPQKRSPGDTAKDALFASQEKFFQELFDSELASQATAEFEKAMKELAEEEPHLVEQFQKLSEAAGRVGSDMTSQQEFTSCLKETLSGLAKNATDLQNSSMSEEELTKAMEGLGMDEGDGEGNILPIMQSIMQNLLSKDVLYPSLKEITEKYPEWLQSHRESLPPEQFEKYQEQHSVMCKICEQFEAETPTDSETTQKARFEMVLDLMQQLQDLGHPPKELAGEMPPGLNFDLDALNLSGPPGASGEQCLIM

Variants of: B1
Settings: with smad3_human SMAD3, P84022
Chain of smad3_human SMAD3, P84022 (P84022 whole entry, looked up): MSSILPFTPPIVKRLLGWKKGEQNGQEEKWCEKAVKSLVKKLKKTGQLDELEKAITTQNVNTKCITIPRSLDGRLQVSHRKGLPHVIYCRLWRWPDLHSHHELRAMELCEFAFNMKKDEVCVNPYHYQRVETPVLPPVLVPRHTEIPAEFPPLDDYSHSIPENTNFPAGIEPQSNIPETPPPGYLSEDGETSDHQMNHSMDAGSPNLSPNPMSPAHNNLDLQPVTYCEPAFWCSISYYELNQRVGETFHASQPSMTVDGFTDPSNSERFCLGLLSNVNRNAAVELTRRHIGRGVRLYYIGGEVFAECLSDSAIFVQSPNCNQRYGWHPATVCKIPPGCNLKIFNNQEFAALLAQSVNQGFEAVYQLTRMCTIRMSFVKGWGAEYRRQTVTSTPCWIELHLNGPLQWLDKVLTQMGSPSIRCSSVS
For N13S, the “effect of a mutation on the interaction” value was “with no effect”. With Y353S the “effect of a mutation on the interaction” value was “disrupting interaction strength”. R361C was tested, and the “effect of a mutation on the interaction” value was “disrupting interaction strength”.

Variants of: B1
Settings: with smad9_human SMAD9, O15198
Chain of smad9_human SMAD9, O15198 (O15198 whole entry): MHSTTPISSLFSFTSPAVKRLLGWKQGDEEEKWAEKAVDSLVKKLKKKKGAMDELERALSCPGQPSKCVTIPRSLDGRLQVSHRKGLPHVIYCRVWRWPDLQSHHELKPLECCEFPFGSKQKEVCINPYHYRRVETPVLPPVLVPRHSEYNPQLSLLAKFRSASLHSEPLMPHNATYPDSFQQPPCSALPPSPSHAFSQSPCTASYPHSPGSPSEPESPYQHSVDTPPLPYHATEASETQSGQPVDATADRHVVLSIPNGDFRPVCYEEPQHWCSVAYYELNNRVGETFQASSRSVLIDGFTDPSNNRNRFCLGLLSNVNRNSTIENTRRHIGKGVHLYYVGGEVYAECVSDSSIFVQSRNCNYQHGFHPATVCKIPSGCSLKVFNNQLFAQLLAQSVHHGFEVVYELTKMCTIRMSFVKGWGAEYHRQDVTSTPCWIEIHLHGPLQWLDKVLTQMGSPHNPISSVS
With N13S the “effect of a mutation on the interaction” value was “with no effect”. In the case of Y353S, the “effect of a mutation on the interaction” value is reported as “disrupting interaction strength”. For R361C, the “effect of a mutation on the interaction” value was “disrupting interaction strength”.

Variants of: B1
Settings: with smad3_human SMAD3, P84022
Remark: another data set of the same source
For V350D, the “effect of a mutation on the interaction” value was “disrupting interaction strength”. C324R was tested, and the “effect of a mutation on the interaction” value was “disrupting interaction strength”. For E330K, the “effect of a mutation on the interaction” value was “disrupting interaction strength”. L533R was tested, and the “effect of a mutation on the interaction” value was “disrupting interaction strength”. With G352R the “effect of a mutation on the interaction” value was “disrupting interaction strength”.

Variants of: B2
Settings: with rasf5_human RASSF5, Q8WWW0
For Y353S, the “effect of a mutation on the interaction” value was “with no effect”. In the case of R361C, the “effect of a mutation on the interaction” value is reported as “with no effect”. For N13S, the “effect of a mutation on the interaction” value was “with no effect”.

Variants of: B3
Settings: with ccnd1_human CCND1, P24385
Chain of ccnd1_human CCND1, P24385 (P24385 whole entry): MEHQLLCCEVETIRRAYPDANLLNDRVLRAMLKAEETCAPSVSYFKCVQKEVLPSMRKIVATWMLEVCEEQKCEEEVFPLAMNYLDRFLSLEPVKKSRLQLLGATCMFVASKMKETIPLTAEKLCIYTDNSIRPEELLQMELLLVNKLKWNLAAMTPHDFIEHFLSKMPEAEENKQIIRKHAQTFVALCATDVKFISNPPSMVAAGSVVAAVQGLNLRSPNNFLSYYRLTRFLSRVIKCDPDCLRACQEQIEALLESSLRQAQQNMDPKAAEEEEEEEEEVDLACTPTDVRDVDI
With S52N the “effect of a mutation on the interaction” value was “with no effect”. In the case of R24H, the “effect of a mutation on the interaction” value is reported as “with no effect”. With N41S the “effect of a mutation on the interaction” value was “with no effect”.

Variants of: B4
Settings: with cdc42_human CDC42, P60953
Chain of cdc42_human CDC42, P60953 (P60953 whole entry, looked up): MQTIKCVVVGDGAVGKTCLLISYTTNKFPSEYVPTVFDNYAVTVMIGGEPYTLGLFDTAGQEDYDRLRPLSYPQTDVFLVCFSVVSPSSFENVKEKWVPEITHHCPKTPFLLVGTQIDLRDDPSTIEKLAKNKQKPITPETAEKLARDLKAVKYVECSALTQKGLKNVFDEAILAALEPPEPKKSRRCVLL
For I294T, the “effect of a mutation on the interaction” value was “disrupting interaction strength”. In the case of E131K, the “effect of a mutation on the interaction” value is reported as “with no effect”.

Variants of: B5
Settings: with pex19_human PEX19, P40855
D347Y was tested, and the “effect of a mutation on the interaction” value was “with no effect”.

Source: IntAct's records for PubMed 25502805
